Source: patent US20210107989A1, “METHODS FOR TREATING CD73HI TUMORS” (CORVUS PHARMACEUTICALS, INC., priority 2017, published 2021)

Molecular target: T1, CD73 on cells (MDA-MB-231 cells; human PBMC) (human, UniProt P21589 27-549)
T1 sequence (looked up): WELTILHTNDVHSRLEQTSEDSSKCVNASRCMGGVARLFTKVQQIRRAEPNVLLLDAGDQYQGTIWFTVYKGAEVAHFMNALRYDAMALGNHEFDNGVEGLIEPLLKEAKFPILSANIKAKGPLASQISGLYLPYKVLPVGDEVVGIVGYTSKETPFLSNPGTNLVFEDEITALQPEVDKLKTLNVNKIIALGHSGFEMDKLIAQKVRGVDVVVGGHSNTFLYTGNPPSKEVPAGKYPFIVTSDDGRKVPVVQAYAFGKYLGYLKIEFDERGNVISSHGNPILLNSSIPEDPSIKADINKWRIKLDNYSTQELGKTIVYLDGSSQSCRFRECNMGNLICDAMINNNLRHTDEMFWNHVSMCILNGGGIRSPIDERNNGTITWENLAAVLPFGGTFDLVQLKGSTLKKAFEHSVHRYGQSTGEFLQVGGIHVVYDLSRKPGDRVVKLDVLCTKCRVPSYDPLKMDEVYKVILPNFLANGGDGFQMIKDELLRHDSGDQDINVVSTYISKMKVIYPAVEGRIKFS
Experiment: cell-based or functional assay

B1: CPX-006 (antibody, human IgG1, kappa, N297Q, V domains shown)
VH: QVQLVQSGAEVEKPGASVKVSCKASGYTFTSYWITWVRQAPGQGLEWMGDIYPGSGNTNYNEKFKTRVTITADKSTSTAYMELSSLRSEDTAVYYCAKEGGLTTEDYALDYWGQGTLVTVSS
VL: EIVLTQSPATLSLSPGERATLSCRASKNVSTSGYSYMHWYQQKPGQAPRLLIYLASNLESGIPPRFSGSGYGTDFTLTINNIESEDAAYYFCQHSRELPFTFGQGTKVEIKR
EC50, T cell proliferation (human PBMC with AMP): 0.189 µM
EC50, interferon gamma production (human PBMC with AMP): 0.137 µM
